Experimental data reported in publication PMC8104107.

Target: T1, influenza A/WSN/33 virus nucleoprotein (NP), recombinant (influenza A virus A/WSN/33 (H1N1)), P15682
T1 chain: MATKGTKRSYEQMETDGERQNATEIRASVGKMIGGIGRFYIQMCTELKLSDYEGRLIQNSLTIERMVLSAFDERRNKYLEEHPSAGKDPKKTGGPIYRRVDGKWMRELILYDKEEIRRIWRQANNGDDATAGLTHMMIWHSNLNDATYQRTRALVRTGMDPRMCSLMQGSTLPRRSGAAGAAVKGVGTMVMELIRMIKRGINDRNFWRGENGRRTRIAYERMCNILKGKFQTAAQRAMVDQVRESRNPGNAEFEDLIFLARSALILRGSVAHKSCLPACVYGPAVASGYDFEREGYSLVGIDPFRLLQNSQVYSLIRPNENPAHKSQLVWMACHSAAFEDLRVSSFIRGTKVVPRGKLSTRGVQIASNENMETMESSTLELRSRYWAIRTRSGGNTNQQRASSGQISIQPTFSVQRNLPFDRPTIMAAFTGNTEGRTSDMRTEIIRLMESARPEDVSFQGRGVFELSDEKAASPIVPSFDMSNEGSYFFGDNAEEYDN
Experiment: crystal structure; NP mixed with FA-6005 (final 0.5 mM) before crystallization; 0.1 M sodium acetate, 0.05 M magnesium acetate, 0.1 M MES pH 6.0, 7% PEG 8000, 5% glycerol; space group C222(1), one trimer in each asymmetric unit
Conditions: remark: other sources report otherwise

B1: influenza A/WSN/33 virus nucleoprotein (NP), recombinant, P15682 1-498 (natural protein)
chain: T1 chain
For B1, the stoichiometry N was 3.
